From PMC8220723 come the findings set out here.

Series [1] deals with FuTraP-hASCT2-d17, human ASCT2 with a deletion of 17 amino acids of region C, fused to AcGFP (human) (UniProt Q15758).
For series [2] the target is unchanged. The source holds these as a separate data set.
The target in series [3] is wild-type human ASCT2 fused to AcGFP (FuTraP-hASCT2-wt) (human) (UniProt Q15758).
Series [4] can be described thus: infection, dsRed-positive cells by flow cytometry. Particulars: glycan lost; control: wild type (FuTraP-hASCT2-wt).
Series [5] can be described thus: confocal microscopy, AcGFP with membrane dye. Particulars: glycan lost; control: wild type (FuTraP-hASCT2-wt).
Series [6] in a line: flow cytometry, AcGFP MFI normalised to iRFP713 MFI. Particulars: glycan lost; control: wild type (FuTraP-hASCT2-wt).

For “Syncytin-1 envelope glycoprotein of the chimeric virus MCAS(Sync1-MSC16)dsRed (cytoplasmic tail shortened to 16 amino acids) (from UniProt Q9UQF0 21-538) (natural protein)”, the infection of DF-1/LgBiT cells expressing the FuTraP variant by MCAS(Sync1-MSC16)dsRed, dsRed-positive cells by flow cytometry (reduced sensitivity compared to the wild type) in series [1] was found to be 1.7%. The spinoculation of cells expressing the FuTraP variant with MCAS(Sync1-MSC16)dsRed, infected (dsRed-positive) cells by flow cytometry in series [2] stood at 21%; in series [3], 56%.

B1: ASCT2: N212Q (protein)
parent chain: MVADPPRDSKGLAAAEPTANGGLALASIEDQGAAAGGYCGSRDQVRRCLRANLLVLLTVVAVVAGVALGLGVSGAGGALALGPERLSAFVFPGELLLRLLRMIILPLVVCSLIGGAASLDPGALGRLGAWALLFFLVTTLLASALGVGLALALQPGAASAAINASVGAAGSAENAPSKEVLDSFLDLARNIFPSNLVSAAFRSYSTTYEERNITGTRVKVPVGQEVEGMNILGLVVFAIVFGVALRKLGPEGELLIRFFNSFNEATMVLVSWIMWYAPVGIMFLVAGKIVEMEDVGLLFARLGKYILCCLLGHAIHGLLVLPLIYFLFTRKNPYRFLWGIVTPLATAFGTSSSSATLPLMMKCVEENNGVAKHISRFILPIGATVNMDGAALFQCVAAVFIAQLSQQSLDFVKIITILVTATASSVGAAGIPAGGVLTLAIILEAVNLPVDHISLILAVDWLVDRSCTVLNVEGDALGAGLLQNYVDRTESRSTEPELIQVKSELPLDPLPVPTEEGNPLLKHYRGPAGDATVASEKESVM
Consider B1, for which, in series [4], the “other: receptor-mediated sensitivity to viral infection” value was “no change”. In series [5], the localisation_or_trafficking result is “no change”. Further, the “expression_or_secretion, percent_of_wt” value in series [6] was “decreases”.
